# Experimental data published in the DeepSol protein solubility set.
# Assay: soluble on expression in E. coli; label from the status in PepcDB or PDB records
row,Sequence,soluble on expression in E. coli
1,MGSDKIHHHHHHMLYRQKVLLALIDVFGGTIDRLYLQKMLFLLSQRQEKPIYEFVPYYYGGFSFTAQWDINALFRKGFLAVDKHTVTLVQKHPQLFDSVTERDMHFLHELCQQYRYKARNDLLRELYEQYPYYAQQSKILDEILDDEAKRRIKQCQDEESRIVLFTIGYEGRSLENYLNTLIRNGIKILVDVRNNPVSMKPGFSKSQLRTYCENLGIGYIHIPEVGIVSELRKNLKSQEDYEELFAAYRREILPTTVSFQQRILNILLCYHRIALTCFEAESQRCHRSHLADAISKLPEFSYEVVHL,not soluble
2,GSSGSSGTRTYDREGFKKRAACLCFRSEQEDEVLLVSSSRYPDQWIVPGGGMEPEEEPGGAAVREVYEEAGVKGKLGRLLGIFENQDRKHRTYVYVLTVTEILEDWEDSVNIGRKREWFKVEDAIKVLQCHKPVHAEYLEKLKLG,soluble
3,MRFIADLVHEKKQLVEKAEAILNEAEKAGGSLTKEQEQQFNRYKDRITRINDSIDEELSKIRTSEPILNMPHNPMAREDVSKIPVTKAISKSFRGMFYGNETVSLSNNGFHSMDEFLRTLHSGRADNRLINASMVEGIPEFGGYSVPEEYGAFLMDKSLENEIIRPRATVWAMGSETKKVSAFDGADRTNHLFGGISGEWLEEGQTGTRKTAKLRLIQLKAKKLACFSQASNELIADGMSFEEMLAGALIKGLGWYMDYAFINGTGEGQPLGIINDPALITVNKEASQEPATITYQNVVNMFSRLAPSCFTNAVWLANPSVIPQLLTMTITIGTGGAQIPVFREESGKFTLLGKEVLFTEKCPTLGAKGDLILADLSQYAIGMRKEIALDRSNVPGWMEDMTDYRVIVRVDGQGTWDKPITPKNGATLSWAVALEAR,soluble
4,MSLTTIRVFDTTLRDGEQMPGVSLPLEYKIRIAKQLDKLGVDVIEAGFPSATKGEFESVKEISSLSLNAEICGLARIVKEDIDAAINANVDMVHIFVPTSRIQIEHTVKMSKEEIIEKSVECVEYIKSHGVKCMFSAMDATRTEVEYLKQIFKAVENAKVDIVNVPDTVGVATPFKFYELIKQLREHLKVPIDVHCHNDFGLAVANTYAAVMAGANEVQVTVNGIGERAGNADLAQVVMILHAIEGIKTNIKTEHLFETSKLVERLTGVKMPPNHPIVGENAFSHESGIHAHGVLKEYSEGHHHHHH,soluble
5,MNSNYKRYKMLVFDLDGTLLNNNHEIAFLTLEVLLALKEDFKIIIATGRRLSEVKNIRSQLKEISINENYLVTANGAEVFLQENLIFRYAMNYDLAKEILKINTDNVDVNLYTFDTWYSNADVKSPIMKHFIKDLGLNVIIGDLTKLNVDSVSKIVYYCDDLAILNKLDTEIKSKDFQDTRVFFSSKDLLEVTNINANKYNAIKNIAFLESIPLCDVLAFGDNNNDYEMLKNLGKGVLMKNANEFLKINLAKNEITRFSNNEDGVARFLIDFFKLNIKY,not soluble
6,MGSDKIHHHHHHLAIINDYWSTQAEAFTEISVDELTSEKNALWKSILKPFVQTDRKLEILDVGCGAGFFEIFLSCLGHHVTAVDFNGKMLAEARKNIEKLGRPELTKLMQMDAQNLAFQDSVFDIVISRNMTWVLENPQRAYGEWLRVLKPHGKLINFDANWFLHLRDDTARRNFEEGQAAVVEHGFELKESDHGGELDNIFRELPLSGCWRPQWDFMTLANMGCEEIAVKFSLPKGLYDEYYEQLYKAIPTFMLCAVKTG,not soluble
7,MLPTILALLLAPLATALPPTIIRSPKVTGWGWWSEMESCPPGYFAHGMRIKYERDSGSLDETGLNAIELACKNRAVPSSGDTYIKGAEGVFGGWQAYQYCPQGEYVIGFALQSESWRGGNKDDVAANNFAAYCGRPEAPRRRYSWIQGSVNERGSWTRDQFCPARQIVCGIIVQIEPAQAPHVDDASLDSVGLKCCDF,not soluble
8,AIAKNFNDEEHNSQLTDEVLPEPEDARVIANILKAVGVESFDTRVVAQLVEFVYKYIGEVLELSKTFAQYAEREDIRQDDVKLAISSLLSKSFTQPPSRDVLLQLCRERNAVPLPVVDTYVGIQLPPKEFQLTTRNYQLKRKTTTESVASQELSEATGNISIGESSLQPNEEESNTMNT,soluble
9,MSEIINNREYRQKVLKELIRELHDGKSVEEIKPRFEELIKGISPAEISEMEQALIMEGMPVEEIQRLCDVHAAVFKGSIEEIHRPQKPEEVPGHPIHTFKLENAEIRKLVDNEIRPQLELYKNGDTAESLKKLREAFQKLWEIDKHYSRKENLLFPYLEKYGITAPPKVMWGVDDEIRADIKEINNKLSANAQNQNIPLEKAEEAVNRVIEMIFKEENILFPMALETLTEDEWAEIARASDEIGYCMITPEAEWKPARVDVVEKTQKEGVKSQENQGFVEFDAGCLTTEEINAMLNTLPIDITFVDKNDTVKYFTQGKERIFARPKTIIGRKVQNCHPPASVHIVEKIIEDLKSGKKDHEDFWIKMGEKYVYIRYFAVRNEKGEYLGTIEVTQDIAPIQKITGEKRLLSDA,soluble
10,NKSIRMTPSQVAFEIRGTLLPGEVFAICGSCDALGNWNPQNAVALLPENDTGESMLWKATIVLSRGVSVQYRYFKGYFLEPKTIGGPCQVIVHKWETHLQPRSITPLESEIIIDDGQFGIHNGVETLDSGWLTCQTEIRLRLHYSEKPPVSITKKKLKKSRFRVKLTLEGLEEDDDDRVSPTVLHKMSNSLEISLISDNEFKCRHSQPECGYGLQPDRWTEYSIQTMEPDNLELIFDFFEEDLSEHVVQGDALPGHVGTACLLSSTIAESGKSAGILTLPIMSRNSRKTIGKVRVDYIIIKPLPGYSCDMKSSFSKYWKPRIPLDVGHRGAGNSTTTAQLAKVQENTIASLRNAASHGAAFVEFDVHLSKDFVPVVYHDLTCCLTMKKKFDADPVELFEIPVKELTFDQLQLLKLTHVTALKSKDRKESVVQEENSFSENQPFPSLKMVLESLPEDVGFNIEIKWICQQRDGMWDGNLSTYFDMNLFLDIILKTVLENSGKRRIVFSSFDADICTMVRQKQNKYPILFLTQGKSEIYPELMDLRSRTTPIAMSFAQFENLLGINVHTEDLLRNPSYIQEAKAKGLVIFCWGDDTNDPENRRKLKELGVNGLIYDRIYDWMPEQPNIFQVEQLERLKQELPELKSCLCPTVSRFVPSSLCGESDIHVDANGIDNVENA,soluble
11,MEENGMKSKILIFGGTGYIGNHMVKGSLKLGHPTYVFTRPNSSKTTLLDEFQSLGAIIVKGELDEHEKLVELMKKVDVVISALAFPQILDQFKILEAIKVAGNIKRFLPSDFGVEEDRINALPPFEALIERKRMIRRAIEEANIPYTYVSANCFASYFINYLLRPYDPKDEITVYGTGEAKFAMNYEQDIGLYTIKVATDPRALNRVVIYRPSTNIITQLELISRWEKKIGKKFKKIHVPEEEIVALTKELPEPENIPIAILHCLFIDGATMSYDFKENDVEASTLYPELKFTTIDELLDIFVHDPPPPASAAF,soluble
12,MGSDKIHHHHHHMIYKVISKDEFRNFVDALVRANTSYGPRQVDTDRNGEPIYQFMPVSSASEIAFDYTVTTSSAKHFLMPFREELSKFSFRDGDWDQEVKYDAPPIVLVGLRPCDINAINILDEVMLKGPYPSPYYLARRKNTFIIGMDHLPLPDCFCRSMNRHTTDHGFNLFASDIGESYFLSINSSKAFNFLKEFETTEPTEEDDCKLIERRKLIKQSFKTNVEVTGLPVFLDLEFDSPIWKKWGDKCLNCGSCAMVCPTCYCYNVEEHFETNLESSSRQRRLYSCNLIDFAEVTGGHNFRPKNGDRLKYRYYHHYRGFAVNDNQQICVGCNRCGRACLAGINPKDVINDLRLEKESCVTCVSPSPAKT,not soluble
13,MAHHHHHHMDPLAGLTTGSRNVIDDFFRWSRLSLDKFKRDLTVEASAFQAGNLWREQYTKAEVAQMLNGQLALMLGVVDTQMEGTTAASAELMRAVLREADRQRVTLDIDVKSVLNNAGGVNAMGEHGRQLMSGPTGRLAPLTVEEASGEAARQLAEANAEVKRLQAKLQQVTDAYTQVMRGRSSDTENLLSMQDAMNDKERLAAELARRCQGQDPSLAATVQELRAEVAEAKRELASRLHQSTQYQQVKHLLAQRNEQLKMMRERLAAYDPSFARYGDDINAEDD,soluble
14,MNLQHHFLIAMPALQDPIFRRSVVYICEHNQNGAMGIIVNKPLENLQIEGILEKLKITPESRDSAIRLDKAVMLGGPLAEDRGFILHTPPSRFASSIRISDNTVITTSRDVLETLGTQQQPSDVLVALGYASWDKGQLEQELLDNAWLTAPADLNILFKTPIAERWREAAKLIGIDILTMPGVAGHALEHHHHHH,soluble
15,PLGSQYFLKVLIPSYAAGSIIGKGGQTIVQLQKETGATIKLSKSKDFYPGTTERVCLIQGTIEALNAVHGFIAEKIREMPQNVAKTEPVSILQPQTTVNPDRANQVKIIVPNSTAGLIIGKGGATVKAIMEQSGAWVQLSQKPDGINLQNRVVTVSGEPEQNRKAVELIIQKIQEDPQ,soluble
16,MGSDKIHHHHHHMWGYLQGKQVALKRNRVDLYHFGYMIRSKSARKLGTTTAQQIKDITDEIRAFLVKDHRDILSESFMNKEKRAAVEQIIKSFLLSNQVVISDVPSEQLLNMVCDDIVGFGIIEPLKEDQDVTDIYINGTKEIIYEKIGEGELTFPYRFETEEEVKALAYKMVNSTSESLNTAKPYVDCVFPYIRINIALDELGGLGTTITIRKNADHLRASEERMLSTNQASKEMLDFLAAAVKAKMNILVAGATGTGKSEFMKFLASHIPKGKKKERTLVVEDNPELYLHRIFPEHHFVPMQCRASEVEENAIDFDRLLTNALRQGPKRLIVGESRGKEALKMINFFQTGHPGFTSVHARSAIEAVRRLMLMCLQSGANIDAQYLYELISQTFDVIVFLEKKDDGNRYITEMIELLDYRGDIQFNELSQFIPTYEEQDEINESIGKIHGQHIITGKMSAKMEKKFRSATSVNPALYAPFLSQQEVQYA,not soluble
17,MDQALLDGGYRCYTGEKIDVYFNTAICQHSGNCVRGNGKLFNLKRKPWIMPDEVDVATVVKVIDTCPSGALKYRHK,soluble
18,SNLLYKRWVERCRNIVDKLSEDRIGYVHVKGMDSQSFREVYSEVLGRCRNKEAIIVDTRHNGGGWLHDDLATLLSGKEYQRFVPRGQYIGSDPFNKWLKPSCVLVCEDNYSNAHGFPWVYKELKIGKLIGAPVPGTMTAVWWENQIDPSIVFGIPQVGCMDMRGQYAENHQLSPDIEVYNTPEKALAGEDQQLEAAVQEMLKTIGEKK,not soluble
19,MRYLDAEAIENIATGAAFLGTGGGGDPYIGKMMALSAIEENGPVKLVSPEEIAAEDFFLPAAMMGAPSVAIEKFPKGDEFVRVFEKLGKYLDQETIAGTFPMEAGCVNSMIPIVVAAKLGIPLVDCDGMGRAFPELPMVTFHLNGMSATPMAITDEKGNIGIMETIDNTWTERLARVQTVEMGASALVSIYPATGKQLQDYGIHNIVTLSEEIGKVIRGTYADEQEKRQALVEVTDGFELFQGKILDVEREVKGGFNLGRVKLSGLNSDAGSEAVVHFQNENLIAEKDGQVIAMTPDLICMVDLETLTPVTTESLKYGKRVQVMGLKANAAWRTKKGIETVGPRYFGYEMDYQPLENLVAKEDKLEHHHHHH,soluble
20,MKRSKRFAVLAQRPVNQDGLIGEWPEEGLIAMDSPFDPVSSVKVDNGLIVELDGKRRDQFDMIDRFIADYAINVERTEQAMRLEAVEIARMLVDIHVSREEIIAITTAITPAKAVEVMAQMNVVEMMMALQKMRARRTPSNQCHVTNLKDNPVQIAADAAEAGIRGFSEQETTVGIARYAPFNALALLVGSQCGRPGVLTQCSVEEATELELGMRGLTSYAETVSVYGTEAVFTDGDDTPWSKAFLASAYASRGLKMRYTSGTGSEALMGYSESKSMLYLESRCIFITKGAGVQGLQNGAVSCIGMTGAVPSGIRAVLAENLIASMLDLEVASANDQTFSHSDIRRTARTLMQMLPGTDFIFSGYSAVPNYDNMFAGSNFDAEDFDDYNILQRDLMVDGGLRPVTEAETIAIRQKAARAIQAVFRELGLPPIADEEVEAATYAHGSNEMPPRNVVEDLSAVEEMMKRNITGLDIVGALSRSGFEDIASNILNMLRQRVTGDYLQTSAILDRQFEVVSAVNDINDYQGPGTGYRISAERWAEIKNIPGVVQPDTIE,soluble
